Laboratory results taken from publication PMC5665528, “Characterization of the deubiquitination activity and substrate specificity of the chicken ubiquitin-specific protease 1/USP associated factor 1 complex” (PLoS ONE, 2017).

Biological target: T1, chicken ubiquitin-specific protease 1, chUSP1^GG680,681AA double mutant (full-length control) (chicken, UniProt F1NPR3 1-794, G680A | G681A)
T1 sequence (looked up): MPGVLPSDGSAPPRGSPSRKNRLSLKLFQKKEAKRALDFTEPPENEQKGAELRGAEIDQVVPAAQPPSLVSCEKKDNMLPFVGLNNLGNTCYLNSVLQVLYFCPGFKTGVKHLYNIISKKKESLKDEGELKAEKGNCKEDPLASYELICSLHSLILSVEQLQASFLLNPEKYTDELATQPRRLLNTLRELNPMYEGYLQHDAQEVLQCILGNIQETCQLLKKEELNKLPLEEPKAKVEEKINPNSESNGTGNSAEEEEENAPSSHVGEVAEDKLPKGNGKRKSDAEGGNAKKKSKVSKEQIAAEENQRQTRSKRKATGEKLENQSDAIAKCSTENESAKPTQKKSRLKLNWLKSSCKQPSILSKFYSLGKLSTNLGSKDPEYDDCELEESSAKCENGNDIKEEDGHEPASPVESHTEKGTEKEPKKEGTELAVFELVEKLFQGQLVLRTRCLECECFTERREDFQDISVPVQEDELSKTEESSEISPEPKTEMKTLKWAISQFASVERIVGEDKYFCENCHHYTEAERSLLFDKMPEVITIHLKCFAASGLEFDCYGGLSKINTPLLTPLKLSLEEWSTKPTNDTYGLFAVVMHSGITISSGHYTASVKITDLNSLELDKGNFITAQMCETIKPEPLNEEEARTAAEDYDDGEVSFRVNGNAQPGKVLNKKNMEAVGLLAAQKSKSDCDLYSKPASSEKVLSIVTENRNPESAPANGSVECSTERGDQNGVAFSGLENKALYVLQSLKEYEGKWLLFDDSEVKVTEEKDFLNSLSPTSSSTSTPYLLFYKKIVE
Assay: cell-based or functional assay

B1: chicken USP associated factor 1, untagged (natural protein)
chain: not shown
KM of chUSP1^FL (hydrolysis of Ub-AMC) in the presence of chUAF1 against chUSP1^FL alone, fold decrease: 2.87 fold | deubiquitination activity (kcat/KM, hydrolysis of Ub-AMC) of chUSP1^FL/chUAF1 against chUSP1^FL alone: 54 fold | deubiquitination activity of 125 nM chUSP1^FL (AMC fluorescence from 100 nM Ub-AMC) three minutes after the addition of 125 nM chUAF1, against the control without chUAF1: > 2 fold | kcat of chUSP1^FL (hydrolysis of Ub-AMC) in the presence of chUAF1 against chUSP1^FL alone: 21 fold
